Data from patent publication US20150231240A1, “ANTI-C16ORF54 ANTIBODIES AND METHODS OF USE THEREOF” (priority 2012, published 2015).

How the values were obtained:
[1] = target: T1, C16orf54 on cell lines and primary samples (Homo sapiens, UniProt Q6UWD8); assay: C16orf54 copy number enumeration by flow cytometry with AlexaFluor647 conjugated antibody; type: binding
T1 sequence (Q6UWD8 1-224): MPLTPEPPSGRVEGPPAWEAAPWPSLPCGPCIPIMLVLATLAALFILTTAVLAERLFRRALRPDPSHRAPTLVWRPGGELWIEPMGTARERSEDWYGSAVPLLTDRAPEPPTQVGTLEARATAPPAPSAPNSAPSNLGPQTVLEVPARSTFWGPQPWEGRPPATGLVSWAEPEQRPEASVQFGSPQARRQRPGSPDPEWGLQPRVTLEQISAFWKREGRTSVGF
Protocol: In some assays, human cell lines and primary samples were immunofluorescently stained using an anti-C16orf54 monoclonal antibody R29-7-1C that was conjugated to AlexaFluor647, and copy number of C16orf54 was determined by interpolation on a calibration curve generated by Quantum™ Simply Cellular® bead standards (Bangs Laboratories, Inc.) Copy number results are shown in Table 39 various cell lines and primary samples expressing C16orf54. […]

[2] = target: T2, C16orf54 on peripheral blood and bone marrow mononuclear cells (Homo sapiens, UniProt Q6UWD8); assay: Flow cytometry of PBMC and BMMC from healthy donors; type: binding
T2 construct: endogenous in cells; host or cells: PBMC and BMMC from healthy donors
T2 sequence (Q6UWD8 1-224): T1 sequence (Q6UWD8 1-224)
Protocol: Anti-C16orf54 antibodies were tested for their binding to various cell lines and primary samples (e.g., AML, CLL, lymphoma) using flow cytometry. Copy number of C16orf54 on the various cell lines was determined. Peripheral blood mononuclear (PBMC) and bone marrow mononuclear (BMMC) cells from healthy donors were immunofluorescently stained using the antibodies of CD19, CD3, CD14, CD34, CD33, lineage markers, in addition to an anti-C16orf54 antibody and isotype control antibody, and then evaluated by flow cytometric analysis. […] In single lineage gated populations, C16orf54 is broadly expressed in CD19+ B cells, CD14+ monocytes, CD34+/lineage—progenitor cells and CD33+ myeloid cells, whereas CD3+ T cells have a distinctively low to undetectable level of C16orf54.

[3] = target: T3, cynomolgus monkey C16orf54 (cynomolgus monkey (Macaca fascicularis), UniProt Q6UWD8 1-224 (human entry)); assay: flow cytometry, 10 ug/ml antibody, F279-cyno-C16orf54 cells
T3 construct: also called cyno C16orf54; cyno-C16orf54
T3 chain: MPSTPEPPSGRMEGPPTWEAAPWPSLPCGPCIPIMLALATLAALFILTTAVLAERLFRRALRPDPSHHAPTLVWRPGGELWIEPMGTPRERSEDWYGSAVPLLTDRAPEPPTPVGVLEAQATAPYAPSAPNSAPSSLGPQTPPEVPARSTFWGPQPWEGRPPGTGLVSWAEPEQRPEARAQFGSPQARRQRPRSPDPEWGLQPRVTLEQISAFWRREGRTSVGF
Method in brief: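 Sarcoma cells transfected with human or cyno C16orf54 were Fc-blocked, stained with antibody for 1 h at 4° C., then PE anti-mouse IgG Fcγ secondary 30 min at 4° C., with TO-PRO-3 viability dye. Value is live-cell PE median fluorescence divided by that of IgG isotype control.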

[4] = target: T4, human C16orf54 (human, UniProt Q6UWD8 1-224); assay: flow cytometry, REH leukemia cells (endogenous C16orf54), 3 repeats
T4 construct: also called huC16orf54; hC16orf54
T4 sequence: T1 sequence (Q6UWD8 1-224)

[5] = target: T4, human C16orf54; assay: flow cytometry, NCI-H716 colon cancer cells (endogenous C16orf54), 2 repeats
[6] = target: T5, human C16orf54 ECD fragment aa1-15 (human); assay: peptide ELISA, 2 ug/ml peptide coated, 10 ug/ml antibody
T5 peptide: MPLTPEPPSGRVEGP
Protocol: (§1) Anti-C16orf54 antibodies which bind to human C16orf54, including antibodies that are crossreactive with cyno C16orf54, were tested for their binding to various peptides derived from C16orf54 in a peptide ELISA. A 384-well high binding black microplate (Greiner) was incubated with 2 μg/ml of protein (human, cyno, or mouse extracellular domain peptides) for 16 hours, incubated for 1 hr with a blocking buffer (PBS with 5% Fetal Bovine Serum), washed four times with TBS with Tween, incubated for 1 hour with 10 μg/ml of anti-C16orf54 antibody, washed four times with TBS with Tween, incubated for 1 hour with 10 μg/ml of Peroxidase-AffiniPure Goat Anti-Mouse IgG, Fcγ Fragment Specific (Jackson ImmunoResearch), washed four times with TBS with Tween, and peroxidase was detected with a luminometer (Molecular Devices) upon addition of SuperSignal® ELISA Pico Chemiluminescent Substrate (Thermo Scientific). The luminescence signal was determined.

[7] = target: T6, human C16orf54 ECD fragment aa9-24 (human); assay: as above
T6 peptide: SGRVEGPPAWEAAPWP
Protocol: as §1

[8] = target: T4, human C16orf54; assay: flow cytometry, SW1990 pancreatic cancer cells (endogenous C16orf54), 3 repeats
[9] = target: T4, human C16orf54; assay: flow cytometry, BxPC-3 pancreatic cancer cells (endogenous C16orf54), 3 repeats
[10] = target: T4, human C16orf54; assay: flow cytometry, WSU-DLCL2 lymphoma cells (endogenous C16orf54), 1 repeat

B1: R29-7-1C: murine anti-C16orf54 monoclonal antibody, IgG2a; VH SEQ ID NO: 8, VL SEQ ID NO: 10 (antibody, V domains shown)
VH: MRVLILLWLFTAFPGILSDVQLQESGPGLVKPSQSLSLTCTVTGYSITSDYAWNWIRQFPGNKLEWMGYISYSGSIRYNPSLKSRISITRDTSKNQFFLQLNSVTTEDTATYYCAREKYDNYYYAMDYWGQGTSVTVSS
VL: MDSQAQVLMLLLLWVSGTCGDIVMSQSPSSLAVSVGEKVTLSCKSSQNLLYSTNQKNYLAWYQQKPGQSPKLLIYWASTRESGVPDRFTGSGSGTDFTLTISSVKAEDLAVYYCQQYYSYRTFGGGTKLEIK
modifications: R29-7-1C heavy chain variable region; R29-7-1C light chain variable region
**Q.** How did the “Bang's analysis Average copy #” value ([1]; Human cell line KG1/lymphoblast) turn out when B1 was run?
**A.** The value was 19,975 (1).

**Q.** And the “Bang's analysis Average copy #” value ([1]; Human cell line KG1/myeloblast)?
**A.** The value was 29,971 (10).

**Q.** And the “Bang's analysis Average copy #” value ([1]; Human cell line KG1A)?
**A.** Its value is 11,198 (1).

**Q.** What about the “Bang's analysis Average copy #” value ([1]; Human cell line WSU-DLCL2) of the same molecule?
**A.** Its value is 5,517 (3).

**Q.** What about the “Bang's analysis Average copy #” value ([1]; Human cell line WSU-FSCCL) of the same molecule?
**A.** Its value is 4,221 (3).

**Q.** And the “Bang's analysis Average copy #” value ([1]; Primary Sample CLL 1)?
**A.** Its value is 3,979 (1).

**Q.** What about the “Bang's analysis Average copy #” value ([1]; Primary Sample CLL 2) of the same molecule?
**A.** The value was 10,515 (1).

**Q.** And the “Bang's analysis Average copy #” value ([1]; Primary Sample CLL 3)?
**A.** Its value is 12,277 (1).

**Q.** What about the “Bang's analysis Average copy #” value ([1]; Primary Sample CLL 4) of the same molecule?
**A.** Its value is 11,240 (1).

**Q.** And the “Bang's analysis Average copy #” value ([1]; Primary Sample Lymphoma 1)?
**A.** The value was 10,630 (1).

**Q.** And the “Bang's analysis Average copy #” value ([1]; Primary Sample Lymphoma 2)?
**A.** Its value is 34,397 (1).

**Q.** What about the “Bang's analysis Average copy #” value ([1]; Primary Sample MM 1) of the same molecule?
**A.** Its value is 5,798 (1).

**Q.** What about the “Bang's analysis Average copy #” value ([1]; Primary Sample MM 2) of the same molecule?
**A.** The value was 7,590 (1).

**Q.** What about the “staining of PBMC and BMMC from healthy donors (C16orf54 expression)” value [2] of the same molecule?
**A.** Its value is “low but positive expression of C16orf54 with slightly higher level in BMMCs”.

B2: R29-7-1C (antibody, V domains shown)
VH: DVQLQESGPGLVKPSQSLSLTCTVTGYSITSDYAWNWIRQFPGNKLEWMGYISYSGSIRYNPSLKSRISITRDTSKNQFFLQLNSVTTEDTATYYCAREKYDNYYYAMDYWGQGTSVTVSS
VL: DIVMSQSPSSLAVSVGEKVTLSCKSSQNLLYSTNQKNYLAWYQQKPGQSPKLLIYWASTRESGVPDRFTGSGSGTDFTLTISSVKAEDLAVYYCQQYYSYRTFGGGTKLEIK
notes: Murine monoclonal IgG2a from a hybridoma
**Q.** For B2, which “Median fold change relative to IgG control” value [3] is on record?
**A.** The value was 53.7 fold.

**Q.** And the “Average MFI fold change relative to isotype control” value [4]?
**A.** Its value is 6.4 fold.

**Q.** What about the “Average MFI fold change relative to isotype control” value [5] of the same molecule?
**A.** The value was 3.4 fold.

**Q.** Does B2 bind [6]?
**A.** Result: binds

**Q.** Does B2 bind [7]?
**A.** Result: binds

**Q.** And the “Average MFI fold change relative to isotype control” value [8]?
**A.** Its value is 1.9 fold.

**Q.** And the “Average MFI fold change relative to isotype control” value [9]?
**A.** The value was 7 fold.

**Q.** And the “Average MFI fold change relative to isotype control” value [10]?
**A.** Its value is 9.2 fold.
